Assay [1] has as its target T1, c-Met/Fc Chimera (R&D Systems, catalog # 358-MT-100) (human, UniProt P08581 25-932).
T1 construct: extracellular domain; Bought reagent; also called human c-Met-Fc fusion protein; recombinant c-Met protein; Fc part of the bought chimera not given
Briefly: competition ELISA: displacement of biotinylated HGF from plate-coated c-Met/Fc chimera, Fab, n = 2. As for the experimental part: (§1) 96-well Fluoronunc plates were coated with 50 ul of 0.5 ug/ml c-Met/Fc Chimera (R&D Systems, Minneapolis Minn., catalog # 358-MT-100) in phosphate buffered saline (PBS) and the plates were incubated overnight at room temperature. Wells were washed three times with washing buffer (PBS+0.1% Tween 20), blotting the plates on paper towels between each wash. Nonspecific binding in the wells was blocked by the addition of 250 ul of blocking buffer (3.0% milk (Carnation) in PBS) to each well and incubated at room temperature for two hours.
The c-Met antibodies were diluted in reagent buffer (PBS, 0.5% BSA, 0.05% Tween-20) and titrations were performed in 96 well polypropylene plates. Biotinylated HGF (0.4 ug/ml) (R&D Systems, biotinylated with Pierce #21335 as per manufacturer's instructions) was added to each well. 50 ul of the dilutions were transferred into the Fluoronunc plates containing human c-Met-Fc fusion protein (R&D Systems, #) and the plates were incubated for two hours at room temperature. The plates were washed three times with wash buffer and blotted onto paper towels. 50 ul of europium-labeled Streptavidin (Wallac Perkin Elmer) diluted 1:1000 in Delfia assay buffer (Wallac Perkin Elmer) was added per well and the plates were incubated for one hour at room temperature. The plates were washed seven times with Delfia wash buffer (Tris buffered saline (TBS) supplemented with 0.1% Tween-20) and blotted onto paper towels. 100 ul Delfia enhancer solution (Wallac Perkin Elmer) was added to each well and the plates incubated for 5 minutes on a plate shaker at room temperature. Plates were read on a fluorescence plate reader and analyzed using GraphPad Prism software (GraphPad Software, San Diego, Calif.).
C-Met antibodies 1A3.3.13 (#HB-11894, ATCC Hybridoma) and 5D5.11.6 (#HB-11895, ATCC Hybridoma) were used as positive controls. MOPC-21 (#M-7894, Sigma) was used as an IgG isotype control and HB-94 (#HB-94, ATCC Hybridoma) was converted into a Fab fragment and used as a Fab isotype control. NK4-Elastase is a kringle to kringle 4 fragment resulting from digesting intact HGF purified from S-114 cells with elastase (Date et al., FEBS Lett. 420:1-6 ([…]).
A general note: In an ELISA, binding on a coated surface is turned into a signal by an enzyme label.

For assay [2], the target named is T1, c-Met/Fc Chimera (R&D Systems, catalog …). Briefly: europium (DELFIA) ligand competition ELISA: biotinylated HGF binding to plate-coated c-Met/Fc Chimera, Fab titrated. On the procedure:
as §1
The c-Met antibodies were diluted in reagent buffer (PBS, 0.5% BSA, 0.05% Tween-20) and titrations were performed in 96 well polypropylene plates. Biotinylated HGF (0.4 ug/ml) (R&D Systems, biotinylated with Pierce #21335 as per manufacturer's instructions) was added to each well. 50 ul of the dilutions were transferred into the Fluoronunc plates containing human c-Met-Fc fusion protein (R&D Systems, #) and the plates were incubated for two hours at room temperature. The plates were washed three times with wash buffer and blotted onto paper towels. […] Plates were read on a fluorescence plate reader and analyzed using GraphPad Prism software (GraphPad Software, San Diego, Calif.).

The target is the same in assay [3]. Briefly: SPR (BIAcore), c-Met-Fc captured on protein A CM5 chip, Fab as analyte, 1:1 Langmuir model. On the procedure:
For the binding study of Fab fragments derived from antibodies of the invention, a high density (>2 ng/mm²) of protein A was first immobilized covalently onto a CM5 sensorchip using EDC/NHS amine coupling chemistry [. The flow cell containing c-Met-Fc captured by the protein A was used as the positive control while a flow cell containing only protein A was used as the negative control. The Fab sample to be analyzed was as above for antibodies to form a set of solutions with concentration ranged from 3.9 nM to 500 nM. The HEPES buffer used as the running solution was set at a flow rate of 50 ul/min. For each cycle of binding study, low density (<1 ng/mm²) of c-Met-Fc was captured first onto the positive flow cell. Each sample solution was then injected over the two flow cells (one negative and one positive in series) for three minutes followed by 5 minutes of dissociation. The flow cells were then regenerated with 4.5M MgCl₂ for one minute to remove the bound c-Met-Fc/Fab complexes for the next cycle of binding. The net sensorgrams (subtraction of sensorgrams from the negative control flow cell as well as that from the buffer blank) obtained from the set of samples were fitted simultaneously in a global fitting using a Langmuir 1:1 binding model of the BIAevaluation program equipped with the system. The on-rate (Kₐ), off-rate (Kd) and binding affinity (KD) were determined from the fitting with KD equal to kd/kₐ.

T1 sequence (P08581 25-932, change not shown): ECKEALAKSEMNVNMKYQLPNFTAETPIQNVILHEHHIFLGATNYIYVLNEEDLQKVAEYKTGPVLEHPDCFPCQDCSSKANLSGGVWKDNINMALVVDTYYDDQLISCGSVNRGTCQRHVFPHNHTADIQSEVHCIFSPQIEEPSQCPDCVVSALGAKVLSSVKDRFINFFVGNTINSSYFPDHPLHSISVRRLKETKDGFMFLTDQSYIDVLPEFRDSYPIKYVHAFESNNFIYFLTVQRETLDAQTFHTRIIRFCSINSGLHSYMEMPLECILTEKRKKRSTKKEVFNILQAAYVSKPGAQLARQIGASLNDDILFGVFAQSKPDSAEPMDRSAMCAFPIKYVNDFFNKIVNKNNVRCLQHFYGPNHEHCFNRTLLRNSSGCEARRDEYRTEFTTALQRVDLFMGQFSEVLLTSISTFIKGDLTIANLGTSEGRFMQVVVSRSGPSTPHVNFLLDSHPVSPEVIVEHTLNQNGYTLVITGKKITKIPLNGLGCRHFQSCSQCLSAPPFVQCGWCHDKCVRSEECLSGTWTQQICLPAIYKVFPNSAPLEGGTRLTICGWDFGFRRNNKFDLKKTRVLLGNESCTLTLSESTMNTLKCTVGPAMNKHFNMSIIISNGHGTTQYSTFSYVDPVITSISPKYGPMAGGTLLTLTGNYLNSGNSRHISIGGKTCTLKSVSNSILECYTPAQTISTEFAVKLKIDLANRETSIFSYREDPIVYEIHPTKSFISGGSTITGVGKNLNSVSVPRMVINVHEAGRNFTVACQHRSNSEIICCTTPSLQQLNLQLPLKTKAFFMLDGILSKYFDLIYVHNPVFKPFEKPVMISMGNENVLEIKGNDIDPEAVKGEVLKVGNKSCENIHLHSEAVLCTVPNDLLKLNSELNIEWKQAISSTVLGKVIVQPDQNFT

B1: c-Met 11994 Fab (Fab, V domains shown)
VH: QVQLQESGPGLVKPSGTLSLTCAVSGGSISTSDWWSWVRRPPGKGLEWIGEIYHSGSTNYHPSLKSRVTISLDKSKNQFSLKLSSVTAADTAVYYCAREGGHSGSYPLDYWGKGTLVTVSS
VL: NFMLTQPHSVSESPGKTVTISCTRSSGSIASNYVQWYQQRPGSSPTTVIYEDNQRPSGVPDRFSGSIDSSSNSASLTISGLKTEDEADYYCQSYDSSNQGVVFGGGTKLTVLG
notes: VH and VL limits counted as for the IgG; also called 11994-50; Fab fragment derived from c-Met antibody 11994
For orientation: IC50 means the concentration at which inhibition is half-maximal. High values mean lower potency, low ones higher potency. In general, Kd refers to the constant that tells how readily two partners part at equilibrium. Read a high Kd as lower affinity. Usually koff stands for the first-order rate constant of dissociation. A word on the kon: it is the second-order rate constant of association. High values mean fast association, low ones slow association. B1 gave an IC50 in assay [1] of 24.6 nM. The “IC50 (read off the curve)” value in assay [2] is about 3 nM. Moreover, in assay [3], binding was characterised by a dissociation constant (Kd) of 13.8 nM, the off-rate (koff) was 0.00528 s⁻¹ and the kon turned out to be 383000 M⁻¹ s⁻¹.

The values are drawn from US20040166544A1 (published 2004).
